Values quoted from earlier work as cited in paper PMC5983787.
Read-outs that look alike come from different tables or passages of the source.

Assays:
Cx43 [1] = biological target: Cx43 (UniProt P17302)
Cx43 [2] = biological target: Cx43 (UniProt P17302); remark: listed apart in the source

Chain of UniProt P17302 (P17302 2-382): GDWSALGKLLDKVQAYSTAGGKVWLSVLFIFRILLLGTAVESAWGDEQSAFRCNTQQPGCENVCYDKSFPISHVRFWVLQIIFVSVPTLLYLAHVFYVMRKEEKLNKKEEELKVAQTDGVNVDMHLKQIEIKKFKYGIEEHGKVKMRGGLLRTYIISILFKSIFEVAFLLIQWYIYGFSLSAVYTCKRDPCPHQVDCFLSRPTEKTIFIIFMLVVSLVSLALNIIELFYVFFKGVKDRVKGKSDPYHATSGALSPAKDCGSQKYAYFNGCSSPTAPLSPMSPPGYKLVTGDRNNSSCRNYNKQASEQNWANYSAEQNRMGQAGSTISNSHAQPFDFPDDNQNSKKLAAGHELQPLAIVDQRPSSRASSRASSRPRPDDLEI

Kd (Cx43 [1]): 585 µM | Kd (Cx43 [2]): 1060 µM
Substance: Nedd4 (from UniProt P46934)
